We go through three molecules from US6387696.

Test [1] concerns the target recombinant human calcium channel α1B-1α2bβ1-2 on transfected HEK293 cells (human). The test is described as follows: saturation binding of 125I-ω-CgTx GVIA to transiently transfected HEK293 cells.
Test [2] has as its target recombinant human calcium channel α1B-1β1-2 on transfected HEK293 cells (human). The description is as above.
Test [3] has as its target recombinant human calcium channel α1B-1β1-3 on transfected HEK293 cells (human). The description is as above.
Test [4] deals with recombinant human calcium channel α1B-2α2bβ1-2 on transfected HEK293 cells (human). The description is as above.
Test [5] addresses recombinant human calcium channel α1B-2α2bβ1-3 on transfected HEK293 cells (human). Described as above.
For test [6], the target named is recombinant human calcium channel α1B-2β1-2 on transfected HEK293 cells (human). The test is described as above.
The target in test [7] is recombinant human calcium channel α1B-2β1-3 on transfected HEK293 cells (human). The description is as above.
For test [8], the target named is recombinant human calcium channel α1B-1α2bβ1-2 on transfected HEK293 cells (human). Briefly: ω-CgTx binding to transiently transfected HEK293 cells (8, 5 and 2 µg plasmids).
In test [9] the target is human calcium channel α1B-1 subunit alone on transfected HEK293 cells (human).
human calcium channel α1B-1 subunit alone on transfected HEK293 cells (human), sequence (B1AQK5 whole entry): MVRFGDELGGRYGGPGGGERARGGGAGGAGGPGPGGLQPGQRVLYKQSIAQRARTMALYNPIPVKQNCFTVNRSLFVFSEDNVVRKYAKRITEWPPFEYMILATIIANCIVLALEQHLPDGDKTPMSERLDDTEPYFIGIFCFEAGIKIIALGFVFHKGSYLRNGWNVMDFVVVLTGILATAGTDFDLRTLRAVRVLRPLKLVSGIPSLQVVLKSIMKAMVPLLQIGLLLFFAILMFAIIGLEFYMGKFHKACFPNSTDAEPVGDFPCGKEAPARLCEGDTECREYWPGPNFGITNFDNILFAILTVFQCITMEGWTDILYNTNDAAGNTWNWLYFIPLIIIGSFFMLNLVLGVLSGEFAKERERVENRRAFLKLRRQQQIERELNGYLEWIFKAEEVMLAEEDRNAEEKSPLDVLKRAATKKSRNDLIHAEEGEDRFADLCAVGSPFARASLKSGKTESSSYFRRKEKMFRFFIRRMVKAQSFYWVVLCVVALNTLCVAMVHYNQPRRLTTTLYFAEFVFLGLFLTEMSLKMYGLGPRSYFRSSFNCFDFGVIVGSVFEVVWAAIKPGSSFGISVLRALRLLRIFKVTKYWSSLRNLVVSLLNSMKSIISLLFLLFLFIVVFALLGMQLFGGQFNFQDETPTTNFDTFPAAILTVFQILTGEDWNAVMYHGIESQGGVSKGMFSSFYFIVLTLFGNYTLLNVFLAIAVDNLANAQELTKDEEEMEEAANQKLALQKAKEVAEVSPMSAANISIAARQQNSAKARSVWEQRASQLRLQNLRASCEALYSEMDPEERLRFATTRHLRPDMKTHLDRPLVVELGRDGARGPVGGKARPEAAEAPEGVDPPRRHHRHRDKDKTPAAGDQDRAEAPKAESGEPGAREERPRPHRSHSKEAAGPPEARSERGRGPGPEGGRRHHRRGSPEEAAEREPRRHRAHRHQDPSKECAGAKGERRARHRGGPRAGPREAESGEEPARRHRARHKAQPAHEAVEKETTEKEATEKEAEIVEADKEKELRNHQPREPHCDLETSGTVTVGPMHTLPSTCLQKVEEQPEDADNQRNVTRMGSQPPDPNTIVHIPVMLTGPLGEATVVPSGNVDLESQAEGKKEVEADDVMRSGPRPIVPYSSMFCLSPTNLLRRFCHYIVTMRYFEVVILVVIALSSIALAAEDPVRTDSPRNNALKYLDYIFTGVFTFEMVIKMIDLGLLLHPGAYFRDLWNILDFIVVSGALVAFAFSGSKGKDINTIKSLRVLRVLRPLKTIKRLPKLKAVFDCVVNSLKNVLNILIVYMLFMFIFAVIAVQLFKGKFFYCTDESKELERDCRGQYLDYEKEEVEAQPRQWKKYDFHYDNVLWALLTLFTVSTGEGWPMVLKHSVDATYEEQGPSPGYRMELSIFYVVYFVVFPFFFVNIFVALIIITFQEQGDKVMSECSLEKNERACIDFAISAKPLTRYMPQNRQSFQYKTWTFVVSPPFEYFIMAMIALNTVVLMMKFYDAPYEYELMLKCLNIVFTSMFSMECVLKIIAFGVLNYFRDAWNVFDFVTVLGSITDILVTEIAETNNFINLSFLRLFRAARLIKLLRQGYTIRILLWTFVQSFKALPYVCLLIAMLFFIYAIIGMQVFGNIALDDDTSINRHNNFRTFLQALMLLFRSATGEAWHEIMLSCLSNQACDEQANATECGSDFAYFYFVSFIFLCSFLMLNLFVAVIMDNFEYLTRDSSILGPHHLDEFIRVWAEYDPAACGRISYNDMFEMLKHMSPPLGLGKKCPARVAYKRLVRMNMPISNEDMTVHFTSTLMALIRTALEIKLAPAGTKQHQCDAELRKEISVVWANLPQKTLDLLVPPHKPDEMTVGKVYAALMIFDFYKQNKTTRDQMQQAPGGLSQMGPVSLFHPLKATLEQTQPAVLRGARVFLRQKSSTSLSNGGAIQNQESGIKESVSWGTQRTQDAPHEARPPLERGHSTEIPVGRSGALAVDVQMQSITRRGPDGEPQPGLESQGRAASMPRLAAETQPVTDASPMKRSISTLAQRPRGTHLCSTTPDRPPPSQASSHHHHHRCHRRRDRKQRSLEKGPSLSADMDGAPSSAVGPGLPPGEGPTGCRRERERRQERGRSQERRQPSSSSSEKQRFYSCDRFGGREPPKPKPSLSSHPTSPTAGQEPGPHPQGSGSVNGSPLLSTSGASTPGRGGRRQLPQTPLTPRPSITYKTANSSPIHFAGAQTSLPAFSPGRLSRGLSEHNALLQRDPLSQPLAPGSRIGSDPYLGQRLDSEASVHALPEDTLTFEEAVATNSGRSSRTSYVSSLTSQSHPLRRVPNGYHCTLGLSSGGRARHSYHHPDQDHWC
In test [10] the target is T1, recombinant human calcium channel α1B-1α2b on transfected HEK293 cells (human).
T1 sequence (B1AQK5 whole entry, chain 1 of 2): as the sequence (B1AQK5 whole entry) above
T1 sequence (P54289 whole entry, chain 2 of 2, further chain): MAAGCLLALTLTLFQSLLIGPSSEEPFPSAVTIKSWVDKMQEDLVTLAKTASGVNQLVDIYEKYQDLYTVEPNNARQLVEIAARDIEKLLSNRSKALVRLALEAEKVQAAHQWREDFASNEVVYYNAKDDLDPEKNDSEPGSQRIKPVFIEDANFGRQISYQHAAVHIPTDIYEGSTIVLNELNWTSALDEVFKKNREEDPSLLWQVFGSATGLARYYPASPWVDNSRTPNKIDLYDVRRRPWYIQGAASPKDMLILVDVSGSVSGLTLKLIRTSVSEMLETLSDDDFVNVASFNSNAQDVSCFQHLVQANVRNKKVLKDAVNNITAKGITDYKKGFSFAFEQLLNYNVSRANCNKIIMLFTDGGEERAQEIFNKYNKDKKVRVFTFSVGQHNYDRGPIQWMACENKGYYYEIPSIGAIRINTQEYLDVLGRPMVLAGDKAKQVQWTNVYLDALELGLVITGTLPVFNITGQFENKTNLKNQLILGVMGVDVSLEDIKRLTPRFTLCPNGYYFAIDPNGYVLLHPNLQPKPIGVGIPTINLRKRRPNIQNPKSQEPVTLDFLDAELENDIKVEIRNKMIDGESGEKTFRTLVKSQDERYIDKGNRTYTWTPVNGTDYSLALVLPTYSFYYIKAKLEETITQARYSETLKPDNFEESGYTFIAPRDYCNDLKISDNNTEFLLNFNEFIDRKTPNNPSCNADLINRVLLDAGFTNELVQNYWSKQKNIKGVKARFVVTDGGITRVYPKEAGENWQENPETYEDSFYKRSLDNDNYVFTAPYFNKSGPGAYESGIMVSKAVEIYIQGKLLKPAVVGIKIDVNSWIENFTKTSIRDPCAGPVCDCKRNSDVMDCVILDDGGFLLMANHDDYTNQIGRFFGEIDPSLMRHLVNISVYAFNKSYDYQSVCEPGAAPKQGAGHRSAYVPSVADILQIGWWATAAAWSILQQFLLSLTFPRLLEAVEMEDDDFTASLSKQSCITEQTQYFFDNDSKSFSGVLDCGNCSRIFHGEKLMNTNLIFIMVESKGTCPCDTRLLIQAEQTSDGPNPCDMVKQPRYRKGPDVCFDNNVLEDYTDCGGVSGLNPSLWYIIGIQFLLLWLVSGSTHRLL
The target in test [11] is T1, recombinant human calcium channel …. Briefly: saturation binding of 125I-ω-CgTx GVIA to transiently transfected HEK293 cells.

recombinant human calcium channel α1B-2α2bβ1-3 on transfected HEK293 cells (human), sequence (B1AQK5 whole entry, chain 1 of 3): as the sequence (B1AQK5 whole entry) above
recombinant human calcium channel α1B-2α2bβ1-3 on transfected HEK293 cells (human), sequence (P54289 whole entry, chain 2 of 3, further chain): as the sequence (P54289 whole entry, chain 2 of 2, further chain) above
recombinant human calcium channel α1B-2α2bβ1-3 on transfected HEK293 cells (human), sequence (A8K114 whole entry, chain 3 of 3, further chain): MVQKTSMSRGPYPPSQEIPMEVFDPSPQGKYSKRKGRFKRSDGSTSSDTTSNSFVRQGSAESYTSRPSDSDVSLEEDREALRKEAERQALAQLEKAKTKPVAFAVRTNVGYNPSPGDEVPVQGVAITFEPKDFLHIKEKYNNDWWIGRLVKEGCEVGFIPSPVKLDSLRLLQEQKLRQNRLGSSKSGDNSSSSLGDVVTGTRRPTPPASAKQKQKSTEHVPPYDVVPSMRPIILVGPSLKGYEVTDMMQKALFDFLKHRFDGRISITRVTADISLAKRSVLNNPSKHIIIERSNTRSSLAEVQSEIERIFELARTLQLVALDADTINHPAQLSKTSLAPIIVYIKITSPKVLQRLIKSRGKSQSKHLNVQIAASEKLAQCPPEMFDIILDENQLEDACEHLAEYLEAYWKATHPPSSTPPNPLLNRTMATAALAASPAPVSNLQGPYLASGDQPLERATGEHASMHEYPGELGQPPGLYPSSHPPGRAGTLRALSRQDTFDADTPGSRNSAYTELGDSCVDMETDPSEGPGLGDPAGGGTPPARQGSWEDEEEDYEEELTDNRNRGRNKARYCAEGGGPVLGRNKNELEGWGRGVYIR
recombinant human calcium channel α1B-1β1-3 on transfected HEK293 cells (human), sequence (B1AQK5 whole entry, chain 1 of 2): as the sequence (B1AQK5 whole entry) above
recombinant human calcium channel α1B-1β1-3 on transfected HEK293 cells (human), sequence (A8K114 whole entry, chain 2 of 2, further chain): as the sequence (A8K114 whole entry, chain 3 of 3, further chain) above

By Kd is commonly meant the free concentration of one partner at which half of the binding sites on the other are occupied at equilibrium, for simple one-to-one binding. “125I-ω-CgTx GVIA (from UniProt P01522 46-72) (peptide)”: in test [1], the Bmax (sites/cell) worked out at 45300 sites/cell, the Kd amounted to 0.0549 nM, the fold change of binding sites per cell (Bmax) against α1B-2α2bβ1-2 came out at 2.5 fold and the fold change of surface receptor density (Bmax) against α1B-1β1-2 came to 8 fold. In addition, in test [2], the Bmax (sites/cell) was found to be 5760 sites/cell, the Kd is 0.0179 nM and the fold change of surface binding (Bmax) against α1B-1 alone worked out at 8 fold. In addition, in [3], the Bmax (sites/cell) amounted to 8730 sites/cell, the Kd was found to be 0.0179 nM and the fold change of surface binding (Bmax) against α1B-1 alone worked out at 10 fold. Also, in [4], the Bmax (sites/cell) was 19400 sites/cell, the Kd turned out to be 0.053 nM and the fold change of surface receptor density (Bmax) against α1B-2β1-2 came to 9 fold. Besides, in [5], the Bmax (sites/cell) was determined as 37700 sites/cell, the Kd turned out to be 0.0443 nM, the fold change of binding capacity (Bmax) against α1B-2α2bβ1-2 worked out at 2 fold and the fold change of surface receptor density (Bmax) against α1B-2β1-3 is 13 fold. Further, in test [6], the Bmax (sites/cell) was 2130 sites/cell and the Kd came to 0.0164 nM. Moreover, in test [7], the Bmax (sites/cell) was determined as 2940 sites/cell and the Kd was determined as 0.0222 nM.

Consider “ω-CgTx (from UniProt P01522 46-72) (peptide)”, for which, in test [8], the Kd turned out to be 0.0546 nM and the binding capacity (Bmax) (sites per cell) was 28700.

CKSPGSSCSPTSYNCCRSCNPYTKRCY (modifications not checked) [125I-ω-CgTx GVIA, P01522 46-72]: the Bmax (sites/cell) in test [9] stood at 757 sites/cell; in test [10] it was 2260 sites/cell. Also, the values for the Kd in [9] and in test [10] were 0.0317 nM and 0.0846 nM, respectively. Besides, in test [11], the fold change of binding capacity (Bmax) against α1B-1 alone is 3 fold.
